Results: patent publication US20180155693A1, “Method of Differentiating Stem Cells” (BioTime, Inc., priority 2008, published 2018)

Experiments:
[1] = cited from earlier work
[2] = test system: human embryonic stem cells; assay: Notch signaling inhibition, C-peptide positive cells by immunohistochemistry; format: cell-based; details: added day 9-18 of differentiation; cells fixed at day 21; FIG. 7
Experimental: In order to increase the percentage of Pdx-1 and C-peptide producing cells, the cells from Example 1 were rinsed twice with PBS and then cultured in a culture medium (2% 8-27, 1×Glutamax, 1×NEAA, 1×13-mercaptoethanol in RPMI 1640 (RPMI)) comprising 50 ng/ml Activin A and 50 ng/ml BMP4 for 3 days. The medium was then changed to a medium comprising 50 ng/ml Activin A in RPMI and incubated for 3 days. The cells were then cultured in a medium comprising 3 μM RA, 50 ng/ml FGF2, 1 μM SANT-1 and 10 mM Nicotinamide in RPMI for 6 days with the medium changed every 2-3 days. Notch signaling in the cells was then inhibited by the addition of Gamma Secretase Inhibitor X (DAPT) from day 9-18 of differentiation.
Plate-based immunohistochemistry was performed using standard techniques. Cells were fixed in 4% PFA in PBS for 30 min, washed with PBS and incubated in blocking solution consisting of 10% FCS and 0.1% Triton X-100 in PBS for 1 hr. Cells were incubated overnight at 4 ° C. with the primary antibody diluted in blocking solution. Examples of primary antibodies and their dilutions used include: guinea pig anti-Pdx-1 (1:10,000), rabbit anti-C-peptide (Linea, 1:1,000), goat anti-Sox17 (R & D systems, 1:100), goat anti-FoxA2 (R & D systems 1:100) and mouse anti-Oct4 (Santacruz, 1:100). […]

[3] = test system: ESI035, ESI049, ESI051 and HES-3; assay: Effect of early growth factors, Pdx-1 RT-PCR; format: cell-based, human; details: day 18; early factors per Table 2; compared to cells only treated with Activin A; FIG. 5
Description: The effect of early differentiation factors was examined by differentiating cell lines ESI035, ESI049, ESI051 and HES-3 in 24-well plates in six varying cultures and harvesting them for analysis using immunohistochemistry and Quantitative RT-PCR analysis on day 18 and day 30 of differentiation. The culture medium (1×Glutamax, 1×NEAA, 1×13-mercaptoethanol in RPMI 1640 (RPMI)) was supplemented with other factors summarized in table 2 below. The medium was changed every 2-3 days.
As the effect of FGF2 as an early growth factor varied depending on the cell line used, no conclusion was derived with regard to the effect of an early dose of FGF2 on the expression of Pdx-1.
(§1) Total RNA from hESC at various stages of differentiation was isolated using the Qiagen RNeasy kit […] according to the manufacturer's instructions. RNA was quantified by UV absorption. 1 to 5 μg of RNA was DNase I treated and converted to cDNA using M-MuIV reverse transcriptase (New England Biolabs) using random hexamer primers according to the manufacturer's instructions. Quantitative PCR (RT-PCR) was performed according to the manufacturer's instructions using a BioRad iCycler with approximately 50 ng cDNA per reaction containing 250 nM of each primer and 1×SYBR green master mix (Bio-Rad) and analyzed by Bio-RAD thermocycler.

[4] = test system: ESI035, ESI049 and ESI051; assay: Screen of maturation growth factors, immunohistochemistry for C-peptide and Pdx-1; format: cell-based, human; details: day 18
Description: The effect of maturation growth factors was examined by differentiating cell lines ESI035, ESI049 and ES1051 from Example 1 in 96-well plates in two varying cultures and harvesting them for analysis using immunohistochemistry on day 18 of differentiation. The culture medium (1×Glutamax, 1×NEAA, 1×f3-mercaptoethanol in RPMI 1640 (RPMI)) were supplemented with other factors summarized in Table 4 below. The notable changes to the differentiation protocol used here compared to that used in Example 4 were the shortened period of endoderm induction and the addition of nicotinamide from day 6 of differentiation. The medium was changed every 2-3 days. A list of growth factors (G.F) were tested according to the protocol described in Table 4. […] There were added at two time points. […] None of the added growth factors had any consistent effect on cell viability, C-peptide expression and Pdx-1 expression. Plate-based immunohistochemistry was performed using standard techniques. Cells were fixed in 4% PFA in PBS for 30 min, washed with PBS and incubated in blocking solution consisting of 10% FCS and 0.1% Triton X-100 in PBS for 1 hr. Cells were incubated overnight at 4 ° C. with the primary antibody diluted in blocking solution. […]

[5] = test system: mix of cell lines, ESI017 and ESI035; assay: Definitive endoderm time course, real-time PCR of Sox17 and FoxA2; format: cell-based, human
Experimental: The effects of Activin A with and without BMP4 on the expression of markers of definitive endoderm were examined. Activin A and BMP4 were added to a mix of cell lines, ESI017 and ESI035, of Example 1 after the cells had been washed twice with PBS. Four groups of cells were then cultured in four different conditions:
1) 50 ng/ml Activin A and 50 ng/ml BMP4 in a culture medium (2% B-27, 1×Glutamax, 1×NEAA, 1×J3-mercaptoethanol in RPMI 1640 (RPMI)) for 3 days followed by treatment with Activin A (50 ng/ml) in RPMI.
2) 50 ng/ml Activin A and 50 ng/ml BMP4 in RPMI for about 6 hours followed by treatment with Activin A (50 ng/ml) in RPMI.
3) 50 ng/ml Activin A in RPMI.
4) 10% KOSR in RPMI (negative control).
The cells were cultured continuously and a sample harvested daily. The medium was changed every 2-3 days. Real-time PCR was performed as described in Example 9.
as §1, with “1 to 5 μg of RNA was DNase I treated and converted to cDNA using M-MuIV reverse transcriptase (New England Biolabs) using random hexamer primers according to the manufacturer's instructions.” left out

## C-peptide
[1]
  half-life: about 30 minutes

## CC(C)C[C@H](NC(=O)[C@H](Cc1ccccc1)C[C@@H](O)[C@H](Cc1ccccc1)NC(=O)OC(C)(C)C)C(=O)N[C@@H](Cc1ccccc1)C(N)=O [Gamma Secretase Inhibitor X]
[2]
  Concentration resulting in a significant number of C-peptide positive cells: over 10 μM

## FGF2: member of the FGF family
[3]
  Pdx-1 expression (RT-PCR): did not result in the same effect on Pdx-1 expression in all four cell lines

B1: BMP4: secreted polypeptide belonging to the BMP subgroup of the TGF-superfamily (protein, UniProt P12644 293-408, looked up)
Bone morphogenetic protein 4: SPKHHSQRARKKNKNCRRHSLYVDFSDVGWNDWIVAPPGYQAFYCHGDCPFPLADHLNSTNHAIVQTLVNSVNSSIPKACCVPTELSAISMLYLDEYDKVVLKNYQEMVVEGCGCR
[4]; BMP4 treated plates compared to plates not BMP4 treated
  Pdx-1 positive cells: more Pdx-1 positive cells
[4]; initially cultured in medium comprising BMP4 vs Activin only
  frequency of C-peptide positive cells: higher frequency of C-peptide positive cells
[5]; addition of 50 ng/ml BMP4 to Activin A, up to day 10, FIG. 2B
  FoxA2 expression: did not appear to greatly affect FoxA2 expression

B2: Activin A: protein of the TGF-superfamily (protein, UniProt P08476 311-426, looked up)
Inhibin beta A chain: GLECDGKVNICCKKQFFVSFKDIGWNDWIIAPSGYHANYCEGECPSHIAGTSGSSLSFHSTVINHYRMRGHSPFANLKSCCVPTKLRPMSMLYYDDGQNIIKKDIQNMIVEECGCS
modifications: Inhibin beta A chain
notes: protein of the TGF-superfamily
[5]; 50 ng/ml each in RPMI, daily samples, FIG. 2A
  expression of Sox17 mRNA: weak expression of Sox17 until day 6
